Publication PMC7618119

Tests used:
[1] = molecular target: human μ-opioid receptor-RlucII (human) (UniProt P35372)
[2] = molecular target: rat HA-μ-opioid receptor (rat) (UniProt P33535)
[3] = molecular target: human μ-opioid receptor (AtT20FlpInMOR cells) (human) (UniProt P35372)

Chain of UniProt P33535 (P33535 whole entry): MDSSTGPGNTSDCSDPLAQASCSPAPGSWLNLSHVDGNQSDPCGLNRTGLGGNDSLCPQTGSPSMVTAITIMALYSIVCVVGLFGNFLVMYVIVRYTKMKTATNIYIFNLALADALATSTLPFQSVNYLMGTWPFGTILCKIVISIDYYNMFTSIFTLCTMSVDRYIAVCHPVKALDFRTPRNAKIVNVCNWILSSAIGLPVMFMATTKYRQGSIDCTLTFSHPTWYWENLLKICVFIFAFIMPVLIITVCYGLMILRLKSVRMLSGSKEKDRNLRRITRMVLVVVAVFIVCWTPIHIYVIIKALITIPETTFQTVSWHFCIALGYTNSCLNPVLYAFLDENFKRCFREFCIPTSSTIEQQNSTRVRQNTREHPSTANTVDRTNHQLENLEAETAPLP

- β-arrestin 2 translocation BRET (μ-opioid receptor-RlucII with β-arrestin-2-GFP) in HEK293T cells, agonist pEC50, first set (log M (printed under pEC50)) [1]: -6.12
- β-arrestin 2 translocation BRET (μ-opioid receptor-RlucII with β-arrestin-2-GFP) in HEK293T cells, agonist pEC50, second set (log M (printed under pEC50)) [1]: -6.33
- Gi protein activation BRET (decrease of BRET between Gαi1-RlucII and GFP10-Gγ2) in HEK293T cells, agonist pEC50, first set (log M (printed under pEC50)) [2]: -6.82
- Gi protein activation BRET (decrease of BRET between Gαi1-RlucII and GFP10-Gγ2) in HEK293T cells, agonist pEC50, second set (log M (printed under pEC50)) [2]: -6.99
- apparent rate constant of dissociation (koff): decay of the membrane potential response to the EC75 concentration after naloxone 10 μM, AtT20 cells [3]: > 0.126 s⁻¹
- apparent rate of dissociation (t1/2): decay of the membrane potential response to the EC75 concentration after naloxone 10 μM, AtT20 cells [3]: < 5.5 s
- membrane potential dye fluorescence (hyperpolarisation) in μ-opioid receptor-expressing AtT20 cells, agonist pEC50, first set of experiments (log M (printed under pEC50)) [3]: -7.98
- membrane potential dye fluorescence (hyperpolarisation) in μ-opioid receptor-expressing AtT20 cells, agonist pEC50, second set of experiments (log M (printed under pEC50)) [3]: -8.12
Substance: [D-Ala^2, N-MePhe^4, Gly-ol]-enkephalin (peptide)
